Results: article PMC9667317, “Metal migration and subunit swapping in ALS-linked SOD1: Zn^2+ transfer between mutant and wild-type occurs faster than the rate of heterodimerization” (The Journal of Biological Chemistry, 2022)

Tests used:
Conditions in all cases: both partners purified
[1] = biological target: T1, WT Cu, Zn superoxide dismutase-1 (SOD1), recombinant human (human, UniProt P00441 1-154); assay: capillary electrophoresis; both homodimers apo (metal-free, disulfide intact), mixed at 15 μM dimer each ([SOD1]total = 30 μM), followed over time; 10 mM potassium phosphate pH 7.4, CE at 22 °C, storage at 15 °C; KHet assumed from the fit extrapolated to t = 5000 min
T1 construct: Cu, Zn superoxide dismutase-1 (SOD1), human; Homodimer; intramolecular disulfide bond intact; N-terminus probably acetylated (surmise); also called WT SOD1; WT apo-SOD1; source: demetalated by dialysis, remetalated with ZnSO4 where stated
T1 sequence (P00441 whole entry): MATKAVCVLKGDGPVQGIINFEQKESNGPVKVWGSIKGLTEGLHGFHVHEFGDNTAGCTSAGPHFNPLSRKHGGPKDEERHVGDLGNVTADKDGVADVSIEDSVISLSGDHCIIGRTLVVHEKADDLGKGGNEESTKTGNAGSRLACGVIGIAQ

[2] = biological target: T1, WT Cu, Zn superoxide dismutase-1 …; assay: capillary electrophoresis; binder (first named) as 4Zn-SOD1, target (second named, WT or TD) as apo-SOD1; 15 μM dimer each ([SOD1]total = 30 μM), followed over time; 10 mM potassium phosphate pH 7.4, CE at 22 °C, storage at 15 °C; KHet assumed from the fit extrapolated to t = 5000 min
[3] = biological target: T1, WT Cu, Zn superoxide dismutase-1 …; assay: capillary electrophoresis; both homodimers as 4Zn-SOD1; 15 μM dimer each ([SOD1]total = 30 μM), followed over time; 10 mM potassium phosphate pH 7.4, CE at 22 °C, storage at 15 °C; KHet assumed from the fit extrapolated to t = 5000 min
[4] = biological target: T1, WT Cu, Zn superoxide dismutase-1 …; assay: capillary electrophoresis; binder (first named) as apo-SOD1, target (second named, WT or TD) as 4Zn-SOD1; 15 μM dimer each ([SOD1]total = 30 μM), followed over time; 10 mM potassium phosphate pH 7.4, CE at 22 °C, storage at 15 °C; KHet assumed from the fit extrapolated to t = 5000 min

B1: triply deamidated SOD1 (modeled with N26D/N131D/N139D substitutions), recombinant human (enzyme)
chain: not shown
notes: Cu, Zn superoxide dismutase-1 (SOD1), human, triple mutant N26D/N131D/N139D; printed mass of the apo subunit 15847 Da; Homodimer; disulfide intact; also called TD SOD1; TD; source: demetalated by dialysis, remetalated with ZnSO4 where stated
[1]
  assumed KHet (t = 5000 min): 2.34 ± 0.31
  kHet (rate constant of heterodimerization): 0.0128 min⁻¹
[2]
  assumed KHet (t = 5000 min): 2.09 ± 0.14
  kHet (rate constant of heterodimerization): 0.0041 min⁻¹
[3]
  assumed KHet (t = 5000 min): 2.13 ± 0.71
  kHet (rate constant of heterodimerization): 0.0038 min⁻¹
[4]
  assumed KHet (t = 5000 min): 2.27 ± 0.08
  kHet (rate constant of heterodimerization): 0.0066 min⁻¹
